Assay [1] deals with glial progenitor cells derived from human ES cells (Olig2 positive cells). In words: hOPC differentiation assay, Olig2 positive cells (immunostaining, high content screening). The note with it: days 21, 28, 35, 42; noggin 100 ng/ml; LDN-193189 62.5 nM and 125 nM. The class given is cell-based. How it is done: In order to initiate differentiation 20,000 GPCs were seeded in each well of Matrigel coated plates of 96 wells, or on PolyD-Lysine/laminin (PDL/lam)-coated 96 well plates. Cells were grown in GM media for two to three days. Then GM was replaced by differentiation medium without growth factors, (DMEM/F12, 1% B27, 0.5% N2, Vitamin C (Sigma, 50 ug/ml). Differentiation medium was supplemented with the following tested compounds: […] All media were replaced every other day. The oligodendrocyte lineage cells were characterized by the expression of a transcription factor olig2. The rabbit polyclonal AB anti olig2 (Millipore cat AB9610) was added to PFA fixed cells. […] ArrayScan VTI HCS reader system (Cellomis, Thermo-scientific) was used for scanning at least 20 fields for each tested well under 10× objective in both assays (differentiation and myelination). […] For myelination assay, the same morphological parameters were tested and in addition: areas of myelinated axons in pixels (MBP&NF overlap area) and Number of myelinated regions (MBP&NF overlap count) were also analyzed. […] The 4-parameter Hill-Slope curve fittings were generated by GraphPad Prism software using least squares fitting method and EC50 values were calculated. […] Time points used for analysis are 21, 28, 35 and 42 days of differentiation, for each time point 20 fields were analyzed. […]

Assay [2] concerns hPSC derived oligodendrocytes co-cultured with rodent dorsal root ganglia neurons (MBP+ cells). Kind of assay: Co-culture myelination assay (human oligodendrocytes with DRG neurons), MBP staining. Conditions: 14 days co-culture; Noggin 50 ng/ml; LDN-193189 125 nM. In kind it is cell-based. How it is done: ArrayScan VTI HCS reader system (Cellomis, Thermo-scientific) was used for scanning at least 20 fields for each tested well under 10× objective in both assays (differentiation and myelination). Cellomics Neural profiling bio-application was used for processing and analyzing the images. For differentiation assay, the following parameters were tested: number and percentage of O4+ cells, number of processes, processes length and number of branching points. For myelination assay, the same morphological parameters were tested and in addition: areas of myelinated axons in pixels (MBP&NF overlap area) and Number of myelinated regions (MBP&NF overlap count) were also analyzed. Modifications in the Neuro-profiling bio-application were conducted for this specific purpose. T-test analysis was used to compare between treatments. The 4-parameter Hill-Slope curve fittings were generated by GraphPad Prism software using least squares fitting method and EC50 values were calculated. […]
For testing maturation and myelination capacity of the hPSC derived oligodendrocytes, a co-culture system between rodent dorsal root ganglia (DRGs) and hPSCs derived oligodendrocytes was used. The number of MBP+ cells (MBP, a marker of oligodendrocytes' myelin) and Myelin formation (measured by co-localization area between MBP and neurofilament positive neuronal axons) was quantified.

B1: Noggin: the inhibitor of BMP signaling noggin (R&D) (protein, UniProt Q13253 28-232, looked up)
Noggin: QHYLHIRPAPSDNLPLVDLIEHPDPIFDPKEKDLNETLLRSLLGGHYDPGFMATSPPEDRPGGGGGAAGGAEDLAELDQLLRQRPSGAMPSEIKGLEFSEGLAQGKKQRLSKKLRRKLQMWLWSQTFCPVLYAWNDLGSRFWPRYVKVGSCFSKRSCSVPEGMVCKPSKSVHLTVLRWRCQRRGGQRCGWIPIQYPIISECKCSC
Turning to B1, the “conversion of neural stem cells to Olig2 positive cells” value in assay [1] was “stimulate the conversion of neural stem cells to Olig2 positive cells”. The Myelin fibers result in assay [2] was “Myelin fibers are observed”.

Values taken from US20170095512A1, “METHODS OF INDUCING MYELINATION AND MATURATION OF OLIGODENDROCYTES” (KADIMASTEM LTD., priority 2014, published 2017).
